The target in test [1] is T1, human fibrin (immobilised, fibrin-Sepharose) (human, UniProt P02671 36-629; P02675 45-491; P02679 27-437).
T1 construct: Fibrin coupled to Sepharose beads; Its preparation and chain limits are not described; also called human fibrin-Sepharose
T1 sequence 1: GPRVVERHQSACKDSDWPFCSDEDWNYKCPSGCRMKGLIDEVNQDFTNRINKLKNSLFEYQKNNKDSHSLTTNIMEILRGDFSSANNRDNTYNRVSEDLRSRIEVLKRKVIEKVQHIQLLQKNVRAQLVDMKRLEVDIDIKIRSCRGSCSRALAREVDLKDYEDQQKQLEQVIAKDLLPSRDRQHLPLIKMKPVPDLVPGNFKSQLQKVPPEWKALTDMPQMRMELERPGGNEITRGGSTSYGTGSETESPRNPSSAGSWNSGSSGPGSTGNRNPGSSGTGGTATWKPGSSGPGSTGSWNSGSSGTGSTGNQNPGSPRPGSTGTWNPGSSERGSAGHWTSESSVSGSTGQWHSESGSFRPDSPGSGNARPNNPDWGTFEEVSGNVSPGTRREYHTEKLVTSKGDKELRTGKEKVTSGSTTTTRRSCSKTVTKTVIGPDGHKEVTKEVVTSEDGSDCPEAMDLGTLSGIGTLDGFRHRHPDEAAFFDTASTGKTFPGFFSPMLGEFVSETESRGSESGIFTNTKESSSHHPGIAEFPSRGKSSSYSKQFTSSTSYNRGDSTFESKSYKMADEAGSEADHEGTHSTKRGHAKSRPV
T1 sequence 2: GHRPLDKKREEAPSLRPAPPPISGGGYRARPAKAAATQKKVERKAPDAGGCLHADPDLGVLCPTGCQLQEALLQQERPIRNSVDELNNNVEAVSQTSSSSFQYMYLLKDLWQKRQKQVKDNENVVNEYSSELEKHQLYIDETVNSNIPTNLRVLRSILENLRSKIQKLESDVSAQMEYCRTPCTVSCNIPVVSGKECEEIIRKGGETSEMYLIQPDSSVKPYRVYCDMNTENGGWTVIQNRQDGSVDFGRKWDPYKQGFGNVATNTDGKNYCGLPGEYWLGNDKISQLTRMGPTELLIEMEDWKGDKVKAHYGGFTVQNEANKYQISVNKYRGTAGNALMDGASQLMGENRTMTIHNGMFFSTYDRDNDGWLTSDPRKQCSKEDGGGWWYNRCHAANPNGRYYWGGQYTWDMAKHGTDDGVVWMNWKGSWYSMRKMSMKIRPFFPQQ
T1 sequence 3: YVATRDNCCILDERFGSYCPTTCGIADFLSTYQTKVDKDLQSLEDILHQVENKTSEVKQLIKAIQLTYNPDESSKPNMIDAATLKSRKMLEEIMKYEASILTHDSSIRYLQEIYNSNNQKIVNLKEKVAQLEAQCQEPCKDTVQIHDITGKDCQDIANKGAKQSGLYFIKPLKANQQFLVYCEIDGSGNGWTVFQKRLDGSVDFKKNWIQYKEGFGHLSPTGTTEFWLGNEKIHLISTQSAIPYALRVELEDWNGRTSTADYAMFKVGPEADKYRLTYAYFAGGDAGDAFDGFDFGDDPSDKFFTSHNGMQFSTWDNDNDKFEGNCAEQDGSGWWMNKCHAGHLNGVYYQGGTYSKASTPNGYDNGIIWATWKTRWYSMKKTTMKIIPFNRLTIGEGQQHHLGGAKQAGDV
Briefly: fibrin-Sepharose affinity chromatography; washes with binding buffer and 2 M urea, elution with 6 M urea.

The target of test [2] is T1, human fibrin (immobilised, …). Briefly: refolding with fibrin-Sepharose beads; washes with binding buffer and 2 M urea, elution with 6 M urea.

B1: SK control (streptokinase, fibrin-Sepharose experiment) (other)
chain: IAGPEWLLDRPSVNNSQLVVSVAGTVEGTNQDISLKFFEIDLTSRPAHGGKTEQGLSPKSKPFATDSGAMSHKLEKADLLKAIQEQLIANVHSNDDYFEVIDFASDATITDRNGKVYFADKDGSVTLPTQPVQEFLLSGHVRVRPYKEKPIQNQAKSVDVEYTVQFTPLNPDDDFRPGLKDTKLLKTLAIGDTITSQELLAQAQSILNKNHPGYTIYERDSSIVTHDNDIFRTILPMDQEFTYRVKNREQAYRINKKSGLNEEINNTDLISEKYYVLKKGEKPYDPFDRSHLKLFTIKYVDVDTNELLKSEQLLTASERNLDFRDLYDPRDKAKLLYNNLDAFGIMDYTLTGKVEDNHDDTNRIITVYMGKRPEGENASYHLAYDKDRYTEEEREVYSYLRYTGTPIPDNPNDK
With B1, in test [1], the binding result is “no binding”.

B2: SK-FBD(1,2) chimeric protein (other)
chain: MIAGPEWLLDRPSVNNSQLVVSVAGTVEGTNQDISLKFFEIDLTSRPAHGGKTEQGLSPKSKPFATDSGAMSHKLEKADLLKAIQEQLIANVHSNDDYFEVIDFASDATITDRNGKVYFADKDGSVTLPTQPVQEFLLSGHVRVRPYKEKPIQNQAKSVDVEYTVQFTPLNPDDDFRPGLKDTKLLKTLAIGDTITSQELLAQAQSILNKNHPGYTIYERDSSIVTHDNDIFRTILPMDQEFTYRVKNREQAYRINKKSGLNEEINNTDLISEKYYVLKKGEKPYDPFDRSHLKLFTIKYVDVDTNELLKSEQLLTASERNLDFRDLYDPRDKAKLLYNNLDAFGIMDYTLTGKVEDNHDDTNRIITVYMGKRPEGENASYHLAGGGQAQQMVQPQSPVAVSQSKPGCYDNGKHYQINQQWERTYLGNVLVCTCYGGSRGFNCESKPEAEETCFDKYTGNTYRVGDTYERPKDSMIWDCTCIGAGRGRISC
notes: Start residue 1 is inferred from primer MY-10, which hybridises at the natural TG site QAQQMV
Consider B2, for which the “fibrin-bound protein eluted with 6 M urea” value in test [2] is roughly 4 mg.
